Residue numbers refer to the chain shown, from its start. Like-named read-outs stand apart in the source and are kept apart here.

Our source for the Kd, Ka and IC50 values is patent US20190359719A1 (published 2019).

Test [1] has as its target T1, recombinant c-Met extracellular domain (R&D Systems cat#358-MT-100/CF) (UniProt P08581 25-932).
T1 chain: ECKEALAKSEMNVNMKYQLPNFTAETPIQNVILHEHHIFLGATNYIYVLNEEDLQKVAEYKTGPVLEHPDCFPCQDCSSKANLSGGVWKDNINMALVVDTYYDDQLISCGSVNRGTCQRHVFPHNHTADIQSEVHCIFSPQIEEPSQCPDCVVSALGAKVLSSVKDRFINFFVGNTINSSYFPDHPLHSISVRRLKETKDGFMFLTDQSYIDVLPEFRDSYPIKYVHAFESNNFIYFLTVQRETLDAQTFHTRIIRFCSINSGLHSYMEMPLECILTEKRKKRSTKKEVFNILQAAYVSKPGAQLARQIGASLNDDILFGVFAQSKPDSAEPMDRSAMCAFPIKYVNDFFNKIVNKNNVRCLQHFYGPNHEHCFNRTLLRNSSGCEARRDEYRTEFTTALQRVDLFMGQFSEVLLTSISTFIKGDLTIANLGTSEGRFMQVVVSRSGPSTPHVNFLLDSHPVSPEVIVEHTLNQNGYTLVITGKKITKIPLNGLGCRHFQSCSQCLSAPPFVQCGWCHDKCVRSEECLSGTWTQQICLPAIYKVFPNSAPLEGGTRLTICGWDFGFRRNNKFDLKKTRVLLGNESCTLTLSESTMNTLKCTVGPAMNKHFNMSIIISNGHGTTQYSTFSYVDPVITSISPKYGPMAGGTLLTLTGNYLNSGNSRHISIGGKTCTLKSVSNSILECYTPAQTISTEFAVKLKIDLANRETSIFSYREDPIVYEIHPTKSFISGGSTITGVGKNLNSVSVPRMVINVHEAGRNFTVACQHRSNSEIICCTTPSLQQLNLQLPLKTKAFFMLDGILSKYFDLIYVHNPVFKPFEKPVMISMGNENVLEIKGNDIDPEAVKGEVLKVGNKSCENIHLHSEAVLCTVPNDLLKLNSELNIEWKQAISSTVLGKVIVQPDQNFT
Briefly: Biacore SPR.

Test [2] deals with T1, recombinant c-Met extracellular domain …. Nature of the test: Biacore SPR.
For test [3] the target is unchanged. Briefly: Octet Red (BLI).
Test [4] has the same target. Briefly: ELISA, blocking of HGF binding to c-Met.
The target is the same in test [5]. Nature of the test: Octet Red (BLI). (In general: BLI is a label-free optical method that tracks binding on a fibre tip over time.)
The target is the same in test [6]. Briefly: Octet Red (BLI).
Test [7] shares this target. Briefly: ELISA, blocking of HGF binding to c-Met. Background: An ELISA detects its analyte on a solid surface through an enzyme-linked reagent.

B1: E1 anti-c-Met antibody in IgG format (antibody, V domains shown)
VH: QVQLVQSGAEVKKPGASVKVSCKTSGYTFSGDYMHWVRQAPGQGLEWMGWINPNSGGTNYAQKFQGRVTMTRDTSISTAYMELSRLRSDDTAVYYCAREPGRDYYYYDGMDVWGQGTTVTVSS
VL: QSVVTQPPSVSGAPGQRVTISCTGSSSNIGAGYDVHWYQQLPGTVPKLLIYGNSNRPSGVPDRFSGSKSGTSASLAITGLQAEDEADYYCQSYDSSLSAYVFGTGTKVTVL
Turning to B1, the Kd in test [1] was 18.6 nM; in test [3], 4.5 nM. In test [2], the Ka worked out at 5.37e+07 M⁻¹. Also, in test [4], the IC50 came to 3.18 nM.

B2: B12 anti-c-Met antibody in IgG format (antibody, V domains shown)
VH: QVQLVESGAEVKKPGASVKVSCKASGYTFTGYYMHWVRQAPGQGLEWMGWINPNSGNTGYAQKFQGRVTMTRNTSISTAYMELSSLRSEDTAVYYCARRGTTVSFDYWGQGTTVTVSS
VL: QAVLTQPPSVSGSPGQSITISCTGTSSDVGTFNLVSWYQQHPGKAPKLIIYEVSKRPSDVSPRYSGSKSGTTASLTISVLQTEDEADYYCCSYTTSSSYVFGIGTKVTVL
For the molecule B2, the Kd in test [5] was found to be 0.15 nM.

B3: A1 anti-c-Met antibody in IgG format (antibody, V domains shown)
VH: QVQLQESGPGLVKPSQTLSLTCTVSGGSISSGGYYWSWIRQHPGKGLEWIGEINHSGSTNYNPSLKSRVTISVDTSKNQFSLKLSSVTAADTAVYYCARGRDGYDFDPWGQGTLVTVSS
VL: LPVLTQPASVSGSPGQSITISCTGTSSDVGGYNYVSWYQQHPGKAPKLMIYDVSDRPSGVSTRFSGSKSGNTASLTISGLQAEDEADYYCSSYRSSSALVVFGGGTKLTVL
Regarding B3, the results for the Kd in test [1] and in test [6] were 1.98 nM and 0.8 nM, respectively. Besides, the Ka in test [2] was determined as 5.3e+08 M⁻¹. The IC50 in test [7] was found to be 1.73 nM.

B4: F3 anti-c-Met antibody in IgG format (antibody, V domains shown)
VH: QVQLVESGPGLVKPSGTLSLTCAVSGGSISSSNWWSWVRQPPGKGLEWIGEIYHSGSTNYNPSLKSRVTISVDKSKNQFSLKLSSVTAADTAVYYCARSAYGDYFLDYWGQGTLVTVSS
VL: B3 VL with L1Q, P2S, M49L, S54D, D55S, T62N, Y93F, R94T, A98T, L108V
Turning to B4, the Kd in test [5] came out at 0.7 nM.

B5: A8 (antibody, V domains shown)
VH: QITLKESGAEVKKPGSSVKVSCKASGGTFSSYGISWVRQAPGQGLEWMGGIIPMFGTANYAQKFQGRVTITADESTSTAYMELSSLRSEDTAVYYCARDEVAPDYYGSGPSYGMDVWGQGTMVTVSS
VL: SYELMQPASVSGSPGQSITISCTGTSSDVGGYDHVSWYQQHPGKAPKLMIYAVRNRPSGVPDRFSGSKSGNTASLTISGLQAEDEADYYCSSYTSSLTYVFGTGTKVTVL
With B5, in test [6], the Kd is 1.5 nM.

The term Kd denotes the equilibrium constant for the complex coming apart. For orientation: IC50 means the concentration at which inhibition is half-maximal.
